Experimental data as given in doi:10.1101/2023.09.21.558905.

T1: GUN1 (132-918) (Arabidopsis thaliana, UniProt Q9SIC9 132-918)
T1 sequence: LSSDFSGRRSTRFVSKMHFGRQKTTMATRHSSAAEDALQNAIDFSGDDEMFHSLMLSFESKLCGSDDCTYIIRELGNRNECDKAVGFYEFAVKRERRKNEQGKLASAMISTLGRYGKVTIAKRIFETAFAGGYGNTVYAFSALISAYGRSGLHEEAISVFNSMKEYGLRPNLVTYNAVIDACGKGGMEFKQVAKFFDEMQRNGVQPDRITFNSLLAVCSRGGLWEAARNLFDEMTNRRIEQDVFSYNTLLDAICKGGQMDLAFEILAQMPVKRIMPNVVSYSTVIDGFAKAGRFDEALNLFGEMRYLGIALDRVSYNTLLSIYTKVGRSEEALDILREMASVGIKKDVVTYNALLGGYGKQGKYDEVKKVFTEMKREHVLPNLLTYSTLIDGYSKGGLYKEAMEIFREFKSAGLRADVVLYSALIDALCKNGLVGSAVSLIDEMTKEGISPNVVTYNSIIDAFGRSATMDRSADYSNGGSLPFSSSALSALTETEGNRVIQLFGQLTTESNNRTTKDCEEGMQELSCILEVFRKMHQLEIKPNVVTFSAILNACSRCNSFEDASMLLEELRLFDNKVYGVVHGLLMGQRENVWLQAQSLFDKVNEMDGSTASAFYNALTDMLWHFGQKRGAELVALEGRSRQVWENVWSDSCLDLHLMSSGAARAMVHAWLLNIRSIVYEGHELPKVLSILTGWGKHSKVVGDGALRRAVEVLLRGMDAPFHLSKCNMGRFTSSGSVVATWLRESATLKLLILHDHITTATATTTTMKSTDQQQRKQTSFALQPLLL


Target: T1, GUN1 (132-918)
Experiment: EMSA

Row | Binder | binding result
1 | GGACCGAAUGAUCUAUCUCU (ssRNA) [RNA3] | no binding
2 | GGACCUCCUUCUCUAUCUCU (ssRNA) [RNA2] | no binding
3 | GGAAAUCCGUCGAUAUCUCU (ssRNA) [RNA1 (psbD BLRP 5'-UTR)] | binds
